Data on one molecule can be found in paper PMC7515726 (Nucleic Acids Research, 2020).

This assay concerns the target FLAG-hH2A.D wild-type nucleosome, 147 bp 601 DNA (ELYS pulldowns) (human, UniProt P20671;P62807;Q71DI3;P62805). In words: pull-down.

B1: MBP-His6-TEV-ELYS^C, C-terminal fragment of human ELYS (2157-2275) (domain or fragment)
chain: SSQFVISPPALRSRQKNTSNKNKLEDELKDDAQSVETLGKPKAKRIRTSKTKQASKNTEKESAWSPPPIEIRLISPLASPADGVKSKPRKTTEVTGTGLGRNRKKLSSYPKQILRRKML
Consider B1, for which the binding result is “binds”.
